Reference: PMC12343972 (Nature Communications, 2025)

Molecular target: T1, Rad50 WT (Saccharomyces cerevisiae, UniProt P12753 1-1312)
T1 sequence: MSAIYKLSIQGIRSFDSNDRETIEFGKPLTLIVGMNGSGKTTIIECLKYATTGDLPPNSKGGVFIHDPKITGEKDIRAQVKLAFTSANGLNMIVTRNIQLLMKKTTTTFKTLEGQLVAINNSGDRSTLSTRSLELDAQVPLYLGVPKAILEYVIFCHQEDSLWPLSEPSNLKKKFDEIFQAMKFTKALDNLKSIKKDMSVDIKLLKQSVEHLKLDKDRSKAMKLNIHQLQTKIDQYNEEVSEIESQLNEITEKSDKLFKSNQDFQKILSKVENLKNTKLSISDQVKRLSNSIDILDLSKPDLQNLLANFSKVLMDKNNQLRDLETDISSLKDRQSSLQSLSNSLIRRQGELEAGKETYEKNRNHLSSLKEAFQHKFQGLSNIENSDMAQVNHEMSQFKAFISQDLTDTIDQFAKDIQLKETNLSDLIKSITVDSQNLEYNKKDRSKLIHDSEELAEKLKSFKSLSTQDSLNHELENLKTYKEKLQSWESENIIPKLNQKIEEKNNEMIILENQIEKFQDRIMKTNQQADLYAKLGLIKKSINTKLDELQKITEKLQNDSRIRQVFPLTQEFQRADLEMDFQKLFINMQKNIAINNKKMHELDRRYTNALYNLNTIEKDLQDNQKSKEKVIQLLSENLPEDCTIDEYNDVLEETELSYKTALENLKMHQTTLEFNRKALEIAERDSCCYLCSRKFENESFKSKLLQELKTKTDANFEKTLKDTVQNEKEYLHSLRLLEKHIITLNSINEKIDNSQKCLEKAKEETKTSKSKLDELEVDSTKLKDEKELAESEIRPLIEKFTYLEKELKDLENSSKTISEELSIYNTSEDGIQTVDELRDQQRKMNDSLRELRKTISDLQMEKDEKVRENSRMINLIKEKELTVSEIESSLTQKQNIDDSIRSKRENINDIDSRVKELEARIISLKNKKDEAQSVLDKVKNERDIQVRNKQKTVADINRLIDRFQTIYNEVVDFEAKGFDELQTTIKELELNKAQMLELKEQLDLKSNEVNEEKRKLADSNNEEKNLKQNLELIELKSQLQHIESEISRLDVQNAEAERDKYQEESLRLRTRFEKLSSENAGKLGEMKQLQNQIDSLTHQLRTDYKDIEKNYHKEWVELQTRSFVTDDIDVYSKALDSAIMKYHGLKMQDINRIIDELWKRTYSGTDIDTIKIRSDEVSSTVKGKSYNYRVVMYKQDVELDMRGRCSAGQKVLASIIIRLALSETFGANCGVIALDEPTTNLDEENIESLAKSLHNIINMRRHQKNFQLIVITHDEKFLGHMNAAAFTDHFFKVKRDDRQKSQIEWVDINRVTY
Assay: EMSA

B1: 83-mer dsDNA (EMSA) (dsDNA)
DNA 1: TTGATAAGAGGTCATTTTTGCGGATGGCTTAGAGCTTAATTGCTGAATCTGGTGCTGTAGCTCAACATGTTTTAAATATGCAA
DNA 2: TTGCATATTTAAAACATGTTGAGCTACAGCACCAGATTCAGCAATTAAGCTCTAAGCCATCCGCAAAAATGACCTCTTATCAA
Question: Does B1 bind?
Answer: Result: binds
